Data: PMC4742562, “Structure and Interactions of a Dimeric Variant of sHIP, a Novel Virulence Determinant of Streptococcus pyogenes” (Frontiers in Microbiology, 2016)

Legend:
[1] = molecular target: the molecule itself; experiment: AUC; sedimentation velocity, 20°C, 50000 rpm, 20 mM MES pH 5.5; c(S) distribution compared with theoretical sedimentation coefficients (HYDROPRO)
[2] = molecular target: T1, HRGsingle peptide (single heparin-binding motif of histidine-rich glycoprotein) (human); experiment: ITC; 0.5 mM HRGsingle peptide titrated into 0.05 mM sHIPwt or sHIPqp, 20 mM MES pH 5.5, 25°C; one independent binding site model; conditions: both partners purified
T1 construct: also called GHHPHG; source: synthetic peptide (Biosyntan GmbH, Berlin)

B1: quadruple mutant protein sHIP, sHIPqp (natural protein)
chain: SMKQDQLIVEKMEQTYEAFSPKLANLIEALDAFKEHYEEYATLRNFYSSDEWFRLANQPWDDIPSGVLSEDLLFDMIGDHNQLAADIADLAPIMAKHM
notes: protein sHIP, S. pyogenes, UniProt Q99XU0, residues Lys3-Met98 with Leu84, Leu88, Tyr95 mutated to alanine and Cys65 to serine; Dimer by AUC and in the crystal; For NMR the protein was double-labelled (15N, 13C), grown in minimal medium; also called sHIPqp mutant; sHIP mutant; source: E. coli Rosetta BL21 (DE3), purified (IMAC, His-tag removed with TEV protease, reverse phase chromatography); not …
- stoichiometry N [1]: 2
- Kd [2]: 2800 ± 300 nM
